Measured values from PMC3618186.

Columns and labels:
[1] = target: dynactin p150^Glued coiled-coil 1 (CC1) (R. norvegicus) (UniProt P28023); assay: AUC; sedimentation equilibrium of the p150Glued fragments alone, 4°C, 1x PBS, 1 mM TCEP; monomer-dimer model (dimer to monomers)
[2] = target: Cytoplasmic dynein 1 intermediate chain 2, isoform 2C, N-terminal fragment IC1-124 (UniProt Q62871); assay: sedimentation equilibrium analytical ultracentrifugation (Beckman-Coulter XLI, absorbance optics); settings: 4 °C
Cytoplasmic dynein 1 intermediate chain 2, isoform 2C, N-terminal fragment IC1-124, sequence (Q62871 whole entry, the tested form may be a part, canonical isoform): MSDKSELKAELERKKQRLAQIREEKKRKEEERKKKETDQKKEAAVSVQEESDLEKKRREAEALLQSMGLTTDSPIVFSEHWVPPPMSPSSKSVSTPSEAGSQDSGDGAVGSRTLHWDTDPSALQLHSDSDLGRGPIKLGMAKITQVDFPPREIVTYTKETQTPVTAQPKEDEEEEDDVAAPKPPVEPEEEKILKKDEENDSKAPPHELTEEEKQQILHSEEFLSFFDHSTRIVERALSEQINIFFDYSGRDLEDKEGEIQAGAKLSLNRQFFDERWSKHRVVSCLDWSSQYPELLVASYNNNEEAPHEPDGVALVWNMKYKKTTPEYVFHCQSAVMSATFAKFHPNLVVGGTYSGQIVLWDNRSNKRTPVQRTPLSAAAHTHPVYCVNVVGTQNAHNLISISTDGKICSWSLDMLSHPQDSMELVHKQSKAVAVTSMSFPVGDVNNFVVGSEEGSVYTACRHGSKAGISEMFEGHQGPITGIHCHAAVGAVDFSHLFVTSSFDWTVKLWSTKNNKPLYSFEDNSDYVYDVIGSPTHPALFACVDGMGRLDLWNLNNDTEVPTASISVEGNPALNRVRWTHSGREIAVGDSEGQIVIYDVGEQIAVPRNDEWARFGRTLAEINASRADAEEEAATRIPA

[3] = target: dynactin p150^Glued coiled-coil 1B (CC1B), residues 381–530 (R. norvegicus) (UniProt P28023); assay: SEC; equimolar IC-TcTex1-LC8 complex and p150Glued fragment (CC1, CC1A, CC1B), alone or in combination, analytical Superdex 200 10/300 GL; fractions checked by SDS-PAGE
[4] = target: dynactin p150^Glued coiled-coil 1 (CC1) (R. norvegicus) (UniProt P28023); assay: as above
[5] = target: dynactin p150^Glued coiled-coil 1A (CC1A), residues 204–348 (R. norvegicus) (UniProt P28023); assay: AUC; sedimentation equilibrium of admixtures of p150Glued fragment and IC 1-124, 4°C, 1x PBS, 1 mM TCEP; model p150 dimer + 2 IC -> dimer-IC2, constant in M^2; CC1A: 10 μM + 10 μM
[6] = target: dynactin p150^Glued coiled-coil 1B (CC1B), residues 381–530 (R. norvegicus) (UniProt P28023); assay: as above
[7] = target: dynactin p150^Glued coiled-coil 1 (CC1) (R. norvegicus) (UniProt P28023); assay: as above
[8] = target: dynactin p150^Glued coiled-coil 1 (CC1) (R. norvegicus) (UniProt P28023); assay: AUC; sedimentation equilibrium, CC1 + IC 1-124, 4°C, pH 9.0; model CC1 dimer + 2 IC, constant in M^2
[9] = target: dynactin p150^Glued coiled-coil 1 (CC1) (R. norvegicus) (UniProt P28023); assay: AUC; sedimentation equilibrium, stoichiometric CC1 + IC 1-124, 4°C, 500 mM NaCl; model CC1 dimer + 2 IC, constant in M^2
[10] = target: dynactin p150^Glued coiled-coil 1 (CC1) (R. norvegicus) (UniProt P28023); assay: AUC; sedimentation equilibrium, stoichiometric CC1 + IC 1-124, 4°C, 100 mM NaCl; model CC1 dimer + 2 IC, constant in M^2
[11] = target: dynactin p150^Glued coiled-coil 1 (CC1) (R. norvegicus) (UniProt P28023); assay: AUC; sedimentation equilibrium, stoichiometric CC1 + IC 1-124, 4°C, 250 mM NaCl; model CC1 dimer + 2 IC, constant in M^2
[12] = target: dynactin p150^Glued coiled-coil 1 (CC1) (R. norvegicus) (UniProt P28023); assay: AUC; sedimentation equilibrium, stoichiometric CC1 + IC 1-124, 4°C, 1000 mM NaCl; model CC1 dimer + 2 IC, constant in M^2
[13] = target: dynactin p150^Glued coiled-coil 1 (CC1) (R. norvegicus) (UniProt P28023); assay: AUC; sedimentation equilibrium, CC1 + IC 1-124, 4°C, pH 7.0; model CC1 dimer + 2 IC, constant in M^2
[14] = target: dynactin p150^Glued coiled-coil 1 (CC1) (R. norvegicus) (UniProt P28023); assay: AUC; sedimentation equilibrium, CC1 + IC 1-124, 4°C, pH 8.0; model CC1 dimer + 2 IC, constant in M^2
[15] = target: p150Glued CC1 (Drosophila melanogaster) (UniProt P13496); assay: ITC; settings: cited from earlier work
p150Glued CC1 (Drosophila melanogaster), sequence (P13496 221-509): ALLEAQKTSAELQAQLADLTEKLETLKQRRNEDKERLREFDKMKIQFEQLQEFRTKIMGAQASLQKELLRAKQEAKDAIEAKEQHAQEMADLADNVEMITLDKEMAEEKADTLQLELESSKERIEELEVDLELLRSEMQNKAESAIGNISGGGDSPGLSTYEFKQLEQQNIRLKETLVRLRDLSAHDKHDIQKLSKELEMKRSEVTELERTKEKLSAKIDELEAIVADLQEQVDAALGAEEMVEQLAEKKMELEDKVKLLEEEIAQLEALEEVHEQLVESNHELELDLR

dynein intermediate chain, sequence (Q24246 whole entry): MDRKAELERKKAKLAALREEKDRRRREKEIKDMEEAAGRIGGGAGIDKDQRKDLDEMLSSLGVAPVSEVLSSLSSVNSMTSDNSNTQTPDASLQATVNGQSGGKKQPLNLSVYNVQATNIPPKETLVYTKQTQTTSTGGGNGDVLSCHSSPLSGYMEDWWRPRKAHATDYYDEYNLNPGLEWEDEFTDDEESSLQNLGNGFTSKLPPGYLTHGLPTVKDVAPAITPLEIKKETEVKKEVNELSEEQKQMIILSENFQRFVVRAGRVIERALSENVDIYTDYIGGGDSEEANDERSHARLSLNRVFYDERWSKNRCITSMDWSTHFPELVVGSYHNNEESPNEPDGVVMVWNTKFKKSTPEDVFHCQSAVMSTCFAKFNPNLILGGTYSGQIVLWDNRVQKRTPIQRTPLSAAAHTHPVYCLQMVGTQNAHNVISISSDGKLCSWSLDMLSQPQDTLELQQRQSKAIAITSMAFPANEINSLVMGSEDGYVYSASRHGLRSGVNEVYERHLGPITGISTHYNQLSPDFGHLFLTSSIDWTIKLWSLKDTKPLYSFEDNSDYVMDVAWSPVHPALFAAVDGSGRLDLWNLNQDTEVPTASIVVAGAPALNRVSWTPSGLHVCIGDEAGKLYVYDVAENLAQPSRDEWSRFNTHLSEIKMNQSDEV

## dynactin p150^Glued coiled-coil 1 (CC1) (from UniProt P28023 204-530) (domain or fragment)
[1]
  Kd: < 1 nM
  stoichiometry N: 2

## Dynactin subunit 1 (p150Glued) CC1 fragment
[2]; pH 7.0, not stated (pH series 6.0, 7.0, 8.0, 9.0; buffer substances not named)
  dissociation constant: ≤10^−13 M^2
[2]; pH 7.4, 1x PBS: 137 mM NaCl, 2.7 mM KCl, 1x PBS (4.3 mM Na2HPO4, 1.47 mM KH2PO4, pH 7.4)
  dissociation constant: <10^−15 M^2
[2]; pH 8.0, not stated (pH series 6.0, 7.0, 8.0, 9.0; buffer substances not named)
  dissociation constant: ≤10^−14 M^2
[2]; pH 9.0, not stated (pH series 6.0, 7.0, 8.0, 9.0; buffer substances not named)
  dissociation constant: ≤10^−12 M^2

## IC2B^1–158-TcTex1-LC8 complex (from UniProt Q9Z336 1-113; P63170 1-89)
[3]
  change in elution volume of the IC complex: 1.26 mL
[4]
  change in elution volume of the IC complex: 2.22 mL

## dynein intermediate chain isoform 2C, residues 1–124 (domain or fragment)
[5]
  overall dissociation constant, p150 dimer + 2 IC: > 1e-10 M^2
[6]
  overall dissociation constant on the scale of Figure S4B (scale not told, presumably -log10): 12
  stoichiometry N (IC per CC1B dimer): 2
[7]
  overall dissociation constant, p150 dimer + 2 IC: < 1e-15 M^2
  stoichiometry N (IC per CC1 dimer): 2
[8]
  overall dissociation constant, p150 dimer + 2 IC: < 1e-12 M^2
[9]
  overall dissociation constant, p150 dimer + 2 IC: 1e-10 M^2
[10]
  overall dissociation constant, p150 dimer + 2 IC: > 1e-15 M^2
[11]
  overall dissociation constant, p150 dimer + 2 IC: 1e-12 M^2
[12]
  overall dissociation constant, p150 dimer + 2 IC: 1e-08 M^2
[13]
  overall dissociation constant, p150 dimer + 2 IC: < 1e-13 M^2
[14]
  overall dissociation constant, p150 dimer + 2 IC: < 1e-14 M^2

## dynein intermediate chain (from UniProt Q24246)
[15]
  Kd: 3.5 µM
